# Patent US10295551B2, “Development and use of fluorescent probes of unbound bilirubin” (Alan Marc Kleinfeld, priority 2011, dated 2019)
# Read-outs that look alike come from different tables or passages of the source.
# B1: BL10P23 H9: SEQ 3 mutein: 14R 27C 38I 60Y 73F 106V 115R 117D (protein)
# chain: AFDGTWKVDRNENREKFMEKMGINVVCRKLGAHDNLKITITQEGNKFTVKESSNFRNIDYVFELGVDFAYSAFDGTELTGTWTMEGNKLVGKFKRVDNGKELIAVVEISGNELIRTDTYEGVEAKRIFKKDRGHHHHHH
# modifications: acrylodan labeled; rat intestinal fatty acid binding protein with substitution of Xaa at one or more of 14, 18, 23, 25, 27, 31, 36, 38, 55, 60, 72, 73, 74, 78, 102, 104, 106, 115 and 117; rat intestinal fatty acid binding protein in which one amino acid residue may be substituted with cysteine or lysine; optional 6His tag at N terminus; Xaa=any amino acid
# B2: BL10P8 D3: SEQ 3 mutein: 14G 18L 27C 38M 60Y 73F 106I 115R 117D (protein)
# chain: AFDGTWKVDRNENGEKFLEKMGINVVCRKLGAHDNLKMTITQEGNKFTVKESSNFRNIDYVFELGVDFAYSAFDGTELTGTWTMEGNKLVGKFKRVDNGKELIAVIEISGNELIRTDTYEGVEAKRIFKKDRGHHHHHH
# modifications: acrylodan labeled; rat intestinal fatty acid binding protein with substitution of Xaa at one or more of 14, 18, 23, 25, 27, 31, 36, 38, 55, 60, 72, 73, 74, 78, 102, 104, 106, 115 and 117; rat intestinal fatty acid binding protein in which one amino acid residue may be substituted with cysteine or lysine; optional 6His tag at N terminus; Xaa=any amino acid
# B3: L2P14 F7 - K27C: SEQ 3 mutein: 18G 27C 31M 72A (protein)
# chain: AFDGTWKVDRNENYEKFGEKMGINVVCRKLMAHDNLKLTITQEGNKFTVKESSNFRNIDVVFELGVDFAYSAADGTELTGTWTMEGNKLVGKFKRVDNGKELIAVREISGNELIQTYTYEGVEAKRIFKKDRGHHHHHH
# modifications: acrylodan label; rat intestinal fatty acid binding protein with substitution of Xaa at one or more of 14, 18, 23, 25, 27, 31, 36, 38, 55, 60, 72, 73, 74, 78, 102, 104, 106, 115 and 117; rat intestinal fatty acid binding protein in which one amino acid residue may be substituted with cysteine or lysine; optional 6His tag at N terminus; Xaa=any amino acid
# B4: BL10P25 E7: SEQ 3 mutein: 14F 18L 27C 60R 73F 106V 115R 117D (protein)
# chain: AFDGTWKVDRNENFEKFLEKMGINVVCRKLGAHDNLKLTITQEGNKFTVKESSNFRNIDRVFELGVDFAYSAFDGTELTGTWTMEGNKLVGKFKRVDNGKELIAVVEISGNELIRTDTYEGVEAKRIFKKDRGHHHHHH
# modifications: acrylodan labeled; rat intestinal fatty acid binding protein with substitution of Xaa at one or more of 14, 18, 23, 25, 27, 31, 36, 38, 55, 60, 72, 73, 74, 78, 102, 104, 106, 115 and 117; rat intestinal fatty acid binding protein in which one amino acid residue may be substituted with cysteine or lysine; optional 6His tag at N terminus; Xaa=any amino acid
# Assay type: binding
# Details: for Is: Table 5, intensity at bilirubin saturation
# Procedure: Also described are analytical/mathematical methods for calibrating and using the bilirubin probes. Bilirubin probes are calibrated to determine their binding affinity for bilirubin (dissociation constant Kd) under conditions, such as temperature, pH and solution composition, that correspond to samples in which it is desired to know the unbound bilirubin concentration. Binding isotherms are performed in aqueous buffer by measuring the change in fluorescence of the bilirubin probes in response to increasing bilirubin concentrations (“titration data”). The set of fluorescence responses at each bilirubin concentration are fitted with an appropriate equation (“calibration equation”) that correctly describes the fluorescence response as a function of the bilirubin concentration, the probe concentration, specific spectroscopic characteristics, and the Kd. […] Bilirubin probes are derived from a rat intestinal fatty acid binding protein (rI-FABP) as described previously for unbound FFA (FFAu) probes in U.S. Pat. No. 7,601,510, U.S. publication 2010/0298162 and [Huber A H, Zhu […] and […]. Fluorescence Sensor for the Quantification of Unbound Bilirubin Concentrations. Clin Chem 58: 869-876, 2012; Huber […], Zhu B and […]. Fatty acid-specific fluorescent probes and their use in resolving mixtures of different unbound free fatty acids in equilibrium with albumin. Biochemistry 45: 14263-14274, 2006]. Combinatorial mutagenesis is used first to generate and screen mutant probes for responses to FFAu. […] Hits from this screen are selected for additional mutagenesis to increase the affinity and selectivity for unbound bilirubin. […] (SEQ ID NO: 36) which respect to SEQ 3 has the mutations: […] and […] (Table 5). […]
# [1] = Table 5, single cysteine probes, Primary Fluor Acrylodan
# [2] = Table 7, Acrylodan, second unattached (free) fluorophore Rhodamine B
Molecule,Kd [1],Is (Primary Fluor Acrylodan),Kd [2],Qs [2]
B1,> 0.05 µM,0.16,,
B2,1.03 µM,0,,
B3,,0.02,,
B4,0.035 µM,0.19,0.019 µM,0
